For 7 sequences, protein production results are on record in a protein production outcome set (Wang et al. 2014).

This data set is described as follows: label from the status in PepcDB records.

Regarding “MQFTDGGKEVELRLRLKTGEILSPKDISVDADGTSLAVKEKRNGLLITLLETNHLFEKIMPSETIWYIDEDQLVVNMKKVDGELKWPDIVESWESLTAGMMQLLKGASIYIVGDSTEINQKVSRELAVGLGYSPLDSKELLESFSKQTIDSWILAEGPDSVAEAESSVLESLSSHVRTVVSTLGGKHGAAGRADQWRHLYSGFTVWVSQTEATDEESAKEEARRSKQEREIGYSNADVVVKLQGWDPTHAKSVAQASLSALKQLIISDKGLPGNK”, the protein production result is “failed”.

With “MQGFLRSLFFGVKKIPKPFAPLVEKGVLKEALELKKDRYFLKEGFDIGKVEKVKDKAFFISLAKNYPKDPLIKNLPPSFKTDALILCQIECSKKRPIAFFKAALLNADHTMIAYLAKKNNQIVAIPFKEPFKKPVSLKHSQKSLLELPRHCVVKIDTKKREISEILGALEDPLIDENLSLSLFDRVKDFSKDCLNLAQHYAQLKASDFKDRINYSHIPFITIDPKDAKDFDDAIFYDQEKRVLFVAVADVSEFVPKHSSLDKEARVRGFSVYFPNSVYPMLPLSLSQGACSLKAFEKRLALVYEIPLDNLKNARLSQGVIEVRANCTYEEINHFLSANQSSLDKDLQQSLLGFLEMALKLKKERLKKGFNFNSFENKLYLNKEGRIEKIETEKESDAHTLIEEAMLLANQSSARLLDEHFHNKGIYRTHKEPSLEQQKRLYDKLFDYEIVRPKNMGFFPFLEHALKIAKEKSIEREVSRLIIKSQNLALYSPLQESHFGLGFASYTHFTSPIRRYSDLALHRLLKELLFYQAKGCSYLLEETPELCAELNALQKKAALIERDFIKRKFARLALELLEKEFLGVVLEVKDWVVVGLKEFIGLKVLVKTNKVFKPLEKVRVTITHADLILGQVRGEITERIKEHVS”, the protein production entry is recorded as “failed”. “MQGGRFMGNKNLIITIEREYGSGGRIVGKKLAEELGIHFYDDDILKLASEKSAVGEQFFRLADEKAGNNLLYRLGGGRKIDLHSKPSPNDKLTSPENLFKFQSEVMRELAESEPCIFVGRAAGYVLDQDEDIERLIRIFVYTDKVKKVQRVMEVDCIDEERAKRRIKKIEKERKEYYKYFTGSEWHSMKNYDLPINTTKLTLEETAELIKAYIRLKGFMD”: the protein production result is given as “not failed”.

For the sequence “MQGGSSGIGYGLKYQSRCISDVKADTDYTSFLTGTLSLKEENEVHLLRLSSGGSELICEGLFSHPNEIWDLASCPFDQRIFSTVFSTGESFGAAIWQIPELYGQLNSPQLERVASLDAHVGKINCVLWWPSGRCDKLISIDEQNIFLWSLDCSKKSAEVLSKDSAGMLHSLSGGAWDPHDVNAVAATGESSVQFWDLRTMKKVNSIEHAHVRGVDYNPKREHILVTAEDESGIHVWDLRKAKVPVQELPGHTHWTWAVRCNPEYDGLILSAGTDSVVNLWYASATSSDDKTSESPVESTRQRVNPLLNSYTDYEDSVYGLAWSSREPWVFASLSYDGRVIIESVKPFLPRI”, the protein production entry is given as “failed”.

“MQGIKRKLVYVTAYELIGMSISTLGLALLAGSTPTTTGPLAVVITTVAVTWNFIYNCLFEFWERRQAVRGRSIARRVAHAIGFQLTLVVYLIPLIAWWMGISLLEAFWLDLALIVLIPCYTFLFNWAFDRLFGLPTSALPAGEAASV”: the protein production result was “failed”. The entry for “MQGLVNMVYQQTERLGYKNLEMIKGLDRTENYSKLKKYYRSCVKEYELSNKAIEEAKGFASSKAYRSASEAAARAFDSISMCEAYLEGSKTPGYVTTRNWWFERMCDIDKIFTDLLISAKF” is “failed”; for “MQGNALTILLSGKKYLLLQGPMGPFFNDVAEWLESLGRNAVNVVFNGGDRFYCRHRQYLAYYQTPKEFPGWLRALHRQYDFDTILCFGDCRPLHKEAKRWAKSKGIRFLAFEEGYLRPQFITVEEGGVNAYSSLPRDPDFYRKLPDMPAPHVENLKPSTMKRIGHAMWYYLMGWHYRHEFPRYRHHKSFSPWYEARCWVRAYWRKQLYKVTQRKVLPRLMNELDQRYYLAVLQVYNDSQIRNHSNYNDVRDYINEVMYSFSRKAPKESYLVIKHHPMDRGHRLYRPLIKRLSKEYGLDERVIYVHDLPMPELLRHAKAVVTINSTAGISALIHNKPLKVMGNALYDIKGLTYQGHLHQFWQADFKPDMKLFKKFRGYLLVKTQVNGGYYGGVKFENALGMNKDFLFGSKSIS” it is “failed”.
